Data published in patent publication US6746859.

Columns and labels:
[1] = molecular target: bovine pancreatic trypsin inhibitor (BPTI, Sigma), P00974
[2] = molecular target: T1, Gly-(Asp4)-Lys-βNA fluorogenic enterokinase substrate
T1 chain: GDDDDK

[3] = molecular target: T2, soybean trypsin inhibitor (STI, Sigma), P01070
T2 chain: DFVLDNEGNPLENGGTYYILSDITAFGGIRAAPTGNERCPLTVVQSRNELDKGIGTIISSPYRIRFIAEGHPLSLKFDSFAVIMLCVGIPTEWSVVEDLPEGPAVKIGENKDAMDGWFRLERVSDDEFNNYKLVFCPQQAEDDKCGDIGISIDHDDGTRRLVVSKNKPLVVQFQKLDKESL

[4] = molecular target: Trypsinogen
[5] = molecular target: T3, E. coli thioredoxin/human IL-11 fusion protein with enterokinase cleavage spacer, P20809
T3 chain: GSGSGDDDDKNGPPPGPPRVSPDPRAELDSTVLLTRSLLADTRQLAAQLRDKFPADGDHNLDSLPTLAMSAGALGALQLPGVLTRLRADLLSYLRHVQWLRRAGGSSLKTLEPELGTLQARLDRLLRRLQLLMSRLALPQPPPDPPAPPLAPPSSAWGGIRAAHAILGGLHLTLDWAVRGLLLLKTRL

B1: CHO-produced recombinant bovine enterokinase catalytic domain (light chain) (protein)
chain: IVGGSDSREGAWPWVVALYFDDQQVCGASLVSRDWLVSAAHCVYGRNMEPSKWKAVLGLHMASNLTSPQIETRLIDQIVINPHYNKRRKNNDIAMMHLEMKVNYTDYIQPICLPEENQVFPPGRICSIAGWGALIYQGSTADVLQEADVPLLSNEKCQQQMPEYNITENMVCAGYEAGGVDSCQGDSGGPLMCQENNRWLLAGVTSFGYQCALPNRPGVYARVPRFTEWIQSFLH
For B1, the “cleaving activity toward the fluorogenic enterokinase substrate Gly-(Asp4)-Lys-βNA” value [1] was “This activity was inhibited by the addition of either soybean trypsin inhibitor (STI,Sigma) or bovine pancreatic trypsin inhibitor (BPTI, Sigma)”, the EFFICIENCY OF CLEAVAGE (relative molar activities) (relative molar activity) [2] was 1 and the “cleaving activity toward the fluorogenic enterokinase substrate Gly-(Asp4)-Lys-βNA” value [3] was “This activity was inhibited by the addition of either soybean trypsin inhibitor (STI,Sigma) or bovine pancreatic trypsin inhibitor (BPTI, Sigma)”. The EFFICIENCY OF CLEAVAGE (relative molar activities) (relative molar activity) [4] was 1, the EFFICIENCY OF CLEAVAGE (relative molar activities) (relative molar activity) [5] was 25 and the “cleavage of fusion protein (SDS-PAGE)” value [5] was “resulted in total and specific cleavage of this fusion protein into its two component domains (thioredoxin and IL-11)”.
